Assay results: PMC4018787 (The Journal of Cell Biology, 2014)

Tests used:
[1] = target: recombinant full-length tenascin-X (TNX) (UniProt O18977 23-4135); assay: ELISA
[2] = target: T1, recombinant fibrinogen-like (FBG) domain of tenascin-X (TNX), produced in mammalian cells (UniProt O18977 3911-4135); assay: ELISA
T1 sequence (looked up): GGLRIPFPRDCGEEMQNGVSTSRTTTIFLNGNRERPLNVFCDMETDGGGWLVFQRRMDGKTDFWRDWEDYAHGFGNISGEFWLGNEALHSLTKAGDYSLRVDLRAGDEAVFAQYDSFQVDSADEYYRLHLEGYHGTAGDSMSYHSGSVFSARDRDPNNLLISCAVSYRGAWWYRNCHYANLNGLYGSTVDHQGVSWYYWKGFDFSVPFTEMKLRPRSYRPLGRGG

binding result [1]: binds
binding result [2]: binds
B1: inserted (I) domain of the α11 integrin chain fused to GST (domain or fragment, human, UniProt Q9UKX5-1 160-358, looked up)
chain: QTYMDIVIVLDGSNSIYPWVEVQHFLINILKKFYIGPGQIQVGVVQYGEDVVHEFHLNDYRSVKDVVEAASHIEQRGGTETRTAFGIEFARSEAFQKGGRKGAKKVMIVITDGESHDSPDLEKVIQQSERDNVTRYAVAVLGYYNRRGINPETFLNEIKYIASDPDDKHFFNVTDEAALKDIVDALGDRIFSLEGTNKN
